Data reported in US20090297501A1.

Target: monkey Mpl (monkey)

Substance hTPO (ligand) has an EC50 (read off the curve) (growth of BaF3-monkey Mpl cells, WST-8) [B] of 0.01 nM.
